Biological target: KGF receptor (membrane preparations from Balb/MK mouse epidermal keratinocytes) (mouse) (UniProt P21803)
Assay: radioreceptor competition against 125I-labeled E. coli KGF, Balb/MK membrane preparations

KGF receptor (membrane preparations from Balb/MK mouse epidermal keratinocytes) (mouse), sequence (P21803 22-821): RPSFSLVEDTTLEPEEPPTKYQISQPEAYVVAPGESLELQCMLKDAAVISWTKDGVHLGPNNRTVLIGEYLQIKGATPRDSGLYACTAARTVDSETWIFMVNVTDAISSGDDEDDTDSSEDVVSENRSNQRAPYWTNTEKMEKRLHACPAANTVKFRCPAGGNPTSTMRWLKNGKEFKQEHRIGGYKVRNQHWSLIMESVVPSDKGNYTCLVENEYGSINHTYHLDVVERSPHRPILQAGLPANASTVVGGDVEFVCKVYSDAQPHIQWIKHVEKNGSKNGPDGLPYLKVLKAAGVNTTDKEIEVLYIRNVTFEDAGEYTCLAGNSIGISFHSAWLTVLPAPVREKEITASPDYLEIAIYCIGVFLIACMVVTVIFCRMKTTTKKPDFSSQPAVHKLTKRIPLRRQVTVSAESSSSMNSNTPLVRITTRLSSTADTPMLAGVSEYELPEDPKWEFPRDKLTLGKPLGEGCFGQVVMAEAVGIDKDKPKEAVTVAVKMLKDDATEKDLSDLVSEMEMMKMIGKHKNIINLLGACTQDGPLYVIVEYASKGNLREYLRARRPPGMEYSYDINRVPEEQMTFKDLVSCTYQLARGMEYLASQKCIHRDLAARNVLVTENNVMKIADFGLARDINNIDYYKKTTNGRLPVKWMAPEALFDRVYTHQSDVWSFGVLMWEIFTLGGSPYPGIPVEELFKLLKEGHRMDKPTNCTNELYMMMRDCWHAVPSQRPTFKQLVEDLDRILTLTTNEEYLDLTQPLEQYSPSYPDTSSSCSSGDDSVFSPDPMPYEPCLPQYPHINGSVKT

KGF concentration to compete receptor binding with I^125-labeled KGF at 60% uncompetition rate	Substance
65.8 ng/mL	E. coli-derived, full-length native KGF (keratinocyte growth factor) (ligand)
89.1 ng/mL	KGF-b (CHO-derived N-terminally truncated unglycosylated KGF, about 17 kDa, cleaved at Arg23-Ser24) (ligand)
93.5 ng/mL	KGF-a (CHO-derived glycosylated recombinant KGF, 25-29 kDa form) (ligand)
